Data: patent publication US20210403565A1 (BIOATLA, published 2021)

T1: recombinant human CTLA4 extracellular domain (human, UniProt P16410 36-161)
T1 construct: extracellular domain; also called huCTLA-4
T1 sequence (looked up): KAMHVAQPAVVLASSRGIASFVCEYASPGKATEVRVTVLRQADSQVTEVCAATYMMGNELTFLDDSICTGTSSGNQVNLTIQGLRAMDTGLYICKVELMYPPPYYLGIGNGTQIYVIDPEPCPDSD

T2: human CTLA4 expressed on the cell surface of CHO cells (human, UniProt P16410 36-223)
T2 construct: whole, on cells; also called CHO-huCTLA4; huCTLA4
T2 sequence (looked up): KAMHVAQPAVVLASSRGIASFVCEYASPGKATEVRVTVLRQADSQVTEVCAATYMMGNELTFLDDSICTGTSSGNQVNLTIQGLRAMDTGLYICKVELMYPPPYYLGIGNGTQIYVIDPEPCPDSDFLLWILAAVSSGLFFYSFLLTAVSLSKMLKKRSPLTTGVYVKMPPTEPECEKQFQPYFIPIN

T3: human CTLA4 on CTLA4 Jurkat effector cells (Promega CTLA4 Blockade Assay) (human, UniProt P16410 36-223)
T3 sequence (looked up): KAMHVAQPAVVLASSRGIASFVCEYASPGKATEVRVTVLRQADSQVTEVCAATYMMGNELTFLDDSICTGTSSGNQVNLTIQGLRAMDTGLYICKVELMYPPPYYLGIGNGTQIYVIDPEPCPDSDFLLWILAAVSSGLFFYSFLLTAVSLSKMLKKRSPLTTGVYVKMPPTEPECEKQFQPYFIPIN


What was measured:
[1] = molecular target: T1, recombinant human CTLA4 extracellular …; assay: ELISA, wells coated with human CTLA4, assay pH 6.0; lot 6972 in Glu buffer, T2W; unit from the axis Log[ng/mL]
Procedure: (§1) Both ELISA and FACS analysis were used to measure the binding activity. […] The amount of bound antibodies was quantified using anti-human IgG antibody conjugated to HRP. The absorbance at 450 nm in each measurement was proportional to the amount of antibodies bound. […] EC50 value (in ng/mL) for binding to human CTLA4 was determined by absorbance at 450 nm against antibody concentration with Prism variable slope of four-parameter dose-response curve, which was calculated using the nonlinear fit (variable slope, four parameters) model built into GraphPad Prism software (version 7.03). The buffers tested included His buffer (His), Tris buffer (Tris), Glutamine buffer (Glu) and no buffer.

[2] = molecular target: T1, recombinant human CTLA4 extracellular …; assay: ELISA, immobilised huCTLA-4, table head pH 7.0 (text: pH 7.4), mean +/- SD
[3] = molecular target: T2, human CTLA4 expressed on the cell …; assay: FACS, cells expressing human CTLA4, assay pH 6.0, MFI; lot 6972 in His buffer, T2W; unit from the axis Log[ng/mL]
Procedure: (§2) The amount of bound antibodies was quantified using anti-human IgG antibody conjugated to fluorophores. The MFI in each reaction was proportional to the amount of antibodies bound. The EC₅₀ value (in ng/mL) for binding to human CTLA4 on cells was determined by MFI of the singlets population against antibody concentration with a Prism variable slope of four-parameter dose-response curve, which was calculated using the nonlinear fit (variable slope, four parameters) model built into GraphPad Prism software (version 7.03).

[4] = molecular target: T2, human CTLA4 expressed on the cell …; assay: FACS, cells expressing human CTLA4, assay pH 6.0, MFI; lot 6972 control without test buffer; same column repeated in FIG. 10B and FIG. 10C; unit from the axis Log[ng/mL]
Procedure: as §2

[5] = molecular target: T2, human CTLA4 expressed on the cell …; assay: FACS, cells expressing human CTLA4, assay pH 7.4, MFI; lot 6972 in His buffer, T0; unit from the axis Log[ng/mL]
Procedure: as §2

[6] = molecular target: T1, recombinant human CTLA4 extracellular …; assay: ELISA, immobilised huCTLA-4, table head pH 7.0 (text: pH 7.4), Jul. 11, 2017
[7] = molecular target: T3, human CTLA4 on CTLA4 Jurkat effector …; assay: cell-based or functional assay
[8] = molecular target: T2, human CTLA4 expressed on the cell …; assay: FACS saturation, CHO-huCTLA-4, pH 7.4, MFI, titration up to about log 6.5, curve still rising at the end; no unit in the table, unit from the axis Log Antibodies [ng/ml]
Procedure: The amount of antibodies bound on the cells was quantified using anti-human IgG antibody conjugated to fluorophores. EC₅₀ values at pH 6.0 and 7.4 for binding to cells were calculated using the nonlinear fit (variable slope, four parameters) model built into GraphPad Prism software (version 7.03). The expression levels of human CTLA4 or cynomolgus CTLA4 on the surface of the CHO cells were determined using a BD QuantiBRITE™ PE kit.
Finally, saturations of the antibodies on the CHO cells expressing human or cynomolgus CTLA4 at pH 7.4 were also measured by FACS (FIGS. 8A-8B).

[9] = molecular target: T2, human CTLA4 expressed on the cell …; assay: FACS, cells expressing human CTLA4, assay pH 7.4, MFI; lot 6978 in Tris buffer, T2W; unit from the axis Log[ng/mL]
Procedure: as §2

[10] = molecular target: T2, human CTLA4 expressed on the cell …; assay: FACS, cells expressing human CTLA4, assay pH 7.4, MFI; lot 6978 in Tris buffer, T0; unit from the axis Log[ng/mL]
Procedure: as §2

[11] = molecular target: T1, recombinant human CTLA4 extracellular …; assay: ELISA, wells coated with human CTLA4, assay pH 6.0; lot 6978 in His buffer, T0; unit from the axis Log[ng/mL]
Procedure: as §1

[12] = molecular target: T1, recombinant human CTLA4 extracellular …; assay: ELISA, wells coated with human CTLA4, assay pH 7.4; lot 6978 in Tris buffer, T0; curve still rising at log 3 (OD450 at most about 0.3), no plateau; unit from the axis Log[ng/mL]
Procedure: as §1

[13] = molecular target: T2, human CTLA4 expressed on the cell …; assay: FACS, cells expressing human CTLA4, assay pH 6.0, MFI; lot 6978 in His buffer, T2W; unit from the axis Log[ng/mL]
Procedure: as §2

[14] = molecular target: T1, recombinant human CTLA4 extracellular …; assay: ELISA, wells coated with human CTLA4, assay pH 7.4; lot 6978 in Tris buffer, T2W; curve still rising at log 3 (OD450 at most about 0.3), no plateau; unit from the axis Log[ng/mL]
Procedure: as §1

Row | EC50 [1] [ng/mL] | EC50 [2] [µg/mL] | EC50 [3] [µg/mL] | EC50 [4] [µg/mL] | EC50 [5] [µg/mL] | EC50 [6] [µg/mL] | EC50 of bioluminescence (RLUs), Promega CTLA4 Blockade Assay, pH 6.0; unit from the axis Log (µg/mL) [7] [µg/mL] | EC50 [8] [µg/mL] | EC50 [9] [µg/mL] | EC50 [10] [µg/mL] | EC50 [11] [µg/mL] | EC50 [12] [µg/mL] | EC50 [13] [µg/mL] | EC50 [14] [µg/mL] | Binder
1 | 2.66 | 0.0598 | 0.295 | 0.223 | 0.433 | 0.0502 | 1.2 | – | – | – | – | – | – | – | BA-087-05-19 (antibody, V domains shown, Detected with anti-human IgG and a molecular weight of 146 kDa was used in SPR, so it was tested as a whole IgG; also called BA-087-05-019; BA-087-05-19 (# 6972)) VH: EVQLVESGGGLVQPGGSLRLSCAASGFTFSHYTMHWVRQAPGKGLEWVSFISYDGNNKYYADSVKGRFTISRDNSKNTLYLQMNSLRAEDTAVYYCARTGWLGPFDYWGQGTLVTVSS VL: AIQLTQSPSSLSASVGDRVTITCRASQYVGSSYLAWYLQKPGQSPQLLIYGAFSRATGIPARFSGSGSGTEFTLTISSLQSEDFAVYYCQQDGSSPWTFGQGTKVEIK
2 | – | – | – | – | – | – | – | 69.6 | 1.54 | 1.26 | 0.038 | 1.14 | 0.145 | 1.49 | BA-087-08-32 (antibody, V domains shown, Detected with anti-human IgG and a molecular weight of 146 kDa was used in SPR, so it was tested as a whole IgG; also called BA-087-08-032; BA-087-08-32 (# 6978)) VH: EVQLVQSGAEVKKPGATVKISCKVSGFTFSHYTMHWIRQSPSRGLEWLGFISYDGNYKYYADSVKGRFTISRDNAKNSLYLQMNSLRAEDTAVYYCARTGWLGPFDYWGQGTLVTVSS VL: EIVMTQSPATLSVSPGERATLSCRASQSVGSSYLAWYQQKPGKAPKLLIYGAFSRATGVPSRFSGSGSGTDFTLTISSLQPEDFATYYCQQDGSSPWTFGQGTKVEIK
